In patent CN111363035A (DONGGUAN PENGZHI BIOTECHNOLOGY CO LTD, dated 2020):

Target: T1, 重组FABP蛋白(自产，140618) (human, UniProt P05413 1-133, limits assumed)
T1 construct: The coated protein is only called 'recombinant FABP protein'; also called 心型脂肪酸结合蛋白; H-FABP
Assay: indirect ELISA, recombinant FABP protein coated, CHO transient supernatant, goat anti-mouse IgG-HRP

T1 sequence (P05413 whole entry): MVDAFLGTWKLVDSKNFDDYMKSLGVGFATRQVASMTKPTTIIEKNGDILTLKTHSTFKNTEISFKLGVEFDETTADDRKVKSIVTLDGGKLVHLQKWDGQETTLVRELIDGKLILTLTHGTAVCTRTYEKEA

OD450 (reference 630 nm) at 1000-fold dilution of the supernatant: > 1 OD
B1: Anti-FABP 8F3 重组抗体 (抗人心型脂肪酸结合蛋白的重组抗体) (antibody, V domains shown)
VH: QVQLQQPGADLVRPGASVKLSCKTSGYSFTGYFMNWVKQRPGQGLEWIGMIHASDSSTRLNQKFKDKATLTVDKSSTTVYMQFSSPTSEDSAVYYCARGIRDFAYWGQGTLVTVSA
VL: DIVMTQSQKFMSTSVGDRVSITCKASNNIASSVAWYQLRPGQSPKALIYSPTYRYSGIPDRFTGSGSGTDFTLTISNVQSEDLAEYFCQQYNSYPLSFGSGTKLEIK
